According to patent publication US20250171532A1 (NB HEALTH LABORATORY, published 2025):

T1: mouse LPA3 with FLAG tag (mouse LPA3 gene transfected cell) (mouse, UniProt Q9EQ31 1-354)
T1 construct: not shown: FLAG tag added at the 5' terminal of the gene
T1 sequence: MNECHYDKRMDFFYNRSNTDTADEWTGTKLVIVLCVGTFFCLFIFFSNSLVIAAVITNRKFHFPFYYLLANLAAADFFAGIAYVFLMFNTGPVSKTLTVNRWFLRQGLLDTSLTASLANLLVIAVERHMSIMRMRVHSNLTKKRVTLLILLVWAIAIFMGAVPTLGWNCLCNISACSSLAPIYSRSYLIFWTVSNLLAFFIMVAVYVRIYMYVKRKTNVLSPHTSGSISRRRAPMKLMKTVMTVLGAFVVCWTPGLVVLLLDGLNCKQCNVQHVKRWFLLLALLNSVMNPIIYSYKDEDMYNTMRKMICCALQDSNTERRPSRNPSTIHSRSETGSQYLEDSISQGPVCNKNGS

T2: human LPA3 with FLAG tag (human LPA3 gene transfected cell) (human, UniProt Q9UBY5 1-353)
T2 construct: also called EDG7; not shown: FLAG tag added at the 5' terminal of the gene
T2 sequence: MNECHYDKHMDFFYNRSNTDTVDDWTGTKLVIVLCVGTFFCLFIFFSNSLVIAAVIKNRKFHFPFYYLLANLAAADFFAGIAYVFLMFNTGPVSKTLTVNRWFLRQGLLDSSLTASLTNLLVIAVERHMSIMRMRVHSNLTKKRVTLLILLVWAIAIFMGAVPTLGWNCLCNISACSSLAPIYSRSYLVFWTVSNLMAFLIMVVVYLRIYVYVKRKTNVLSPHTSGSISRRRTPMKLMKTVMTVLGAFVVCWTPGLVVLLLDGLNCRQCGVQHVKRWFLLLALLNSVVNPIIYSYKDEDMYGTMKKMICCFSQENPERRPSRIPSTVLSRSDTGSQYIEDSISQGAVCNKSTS


Legend:
mouse LPA1 [1] = molecular target: T3, mouse LPA1 (mouse, UniProt P61793 1-364); assay: flow cytometry, mouse LPA1-stably expressing CHO cells, median fluorescence intensity
T3 construct: Untagged, on mouse LPA1-stably expressing CHO cells (Flp-In-CHO); also called mLPA1
Description: (§1) The human LPA1-stably expressing CHO cell and the mouse LPA1-stably expressing CHO cell were washed with PBS, then detached from the cell culture dishes by an enzyme-free cell dissociation buffer (Thermo Fisher Scientific, Inc.), then washed with PBS, and then collected by centrifugation. The human LPA1-stably expressing CHO cell and the mouse LPA1-stably expressing CHO cell were suspended at 1×10⁷ cells/mL in Fc Block (Sci-Tech Biosciences, Inc.) diluted by 500 times in FACS buffer, and then allowed to stand at 4° C. for 30 minutes to block the cells. The cells were collected by centrifugation and suspended in FACS buffer at 4×10⁶ cells/mL, and this suspension was dispensed into a V-bottom 96-well plate (Thermo Fisher Scientific, Inc.) at 25 μL (1×10⁵ cells)/well. As primary antibodies, the eleven types of LPA1 antibodies produced and purified by the method described above and a mouse isotype control antibody (Fujifilm Wako Pure Chemicals Corporation) were diluted stepwise, which was added to each well at 25 μL/well, and allowed to stand at 4° C. for 1 hour. The cells were collected by centrifugation and washed with 120 μL of FACS buffer. This washing operation was repeated twice. To the cell sediment, 25 μL each of Goat Anti-Mouse IgG H&L (DyLight 650) (Abcam) that was a secondary antibody diluted by 500 times in FACS buffer was dispensed, then suspended, and then allowed to stand at 4° C. for 1 hour. The cells were washed twice, then suspended in 50 μL of FACS buffer, and the binding of antibodies to the cells was measured using a flow cytometer (Agilent Novocyte).
(§2) A graph was created, in which a concentration of the antibody was plotted on the […] axis, and a median fluorescence intensity of the flow cytometer histogram was plotted on the horizontal axis. All of the eleven antibodies were confirmed to dose-dependently bind to the human LPA1-stably expressing CHO cell and the mouse LPA1-stably expressing CHO cell. The results of the binding of each antibody to the human LPA1-stably expressing CHO cell are presented in FIG. 2A to FIG. 2K, and the results of the binding of each antibody to the mouse LPA1-stably expressing CHO cell are presented in FIG. 3A to FIG. 3K.

human LPA1 [2] = molecular target: T4, human LPA1 (human, UniProt Q92633 1-364); assay: cell-based or functional assay
mouse LPA1 [3] = molecular target: T3, mouse LPA1; assay: cell-based or functional assay
[4] = molecular target: T5, human LPA2 with FLAG tag (human LPA2 gene transfected cell) (human, UniProt Q9HBW0 1-348); assay: flow cytometry, transfected HEK293FT cells, histogram shift
T5 construct: also called EDG4; not shown: FLAG tag added at the 5' terminal of the gene
Protocol: (§3) BTEK293FT cell was transfected with 10 μg of an expression vector carrying each synthetic gene using Lipofectamine 2000, to prepare a human LPA1 gene transfected cell, a mouse LPA1 gene transfected cell, a human LPA2 gene transfected cell, a mouse LPA2 gene transfected cell, a human LPA3 gene transfected cell, and a mouse LPA3 gene transfected cell.
(§4) The next day, the cells were washed with PBS, then detached from the cell culture dishes by an enzyme-free cell dissociation buffer (Thermo Fisher Scientific, Inc.), then washed with PBS, and then collected by centrifugation. Goat serum (Thermo Fisher Scientific, Inc.) was diluted by 2 times in FACS buffer (PBS containing 1% o of FBS), into which the cells were suspended at 1×10⁷ cells/mL. This suspension was allowed to stand at 4° C. for 30 minutes to block the cells. The cells were collected by centrifugation and suspended in FACS buffer at 4×10⁶ cells/mL, and this suspension was dispensed into a V-bottom 96-well plate (Thermo Fisher Scientific, Inc.) at 25 μL (1×10⁵ cells)/well.
(§5) The cells were collected by centrifugation and washed with 120 μL of FACS buffer. This washing operation was repeated twice. To the cell sediment, 25 μL each of Goat Anti-Mouse IgG H&L (DyLight 650) (Abcam) that was a secondary antibody diluted by 500 times in FACS buffer was dispensed, then suspended, and then allowed to stand at 4° C. for 1 hour. The cells were washed twice, then suspended in 50 μL of FACS buffer, and the whole content thereof was transferred to a V-bottom 96-well plate (Greiner), to measure the binding of antibodies to the cells using a flow cytometer (Agilent Novocyte).

[5] = molecular target: T1, mouse LPA3 with FLAG tag (mouse LPA3 …); assay: as above
Protocol: as §3, §4, §5

[6] = molecular target: T2, human LPA3 with FLAG tag (human LPA3 …); assay: as above
Protocol: as §3, §4, §5

[7] = molecular target: T6, mouse LPA2 with FLAG tag (mouse LPA2 gene transfected cell) (mouse, UniProt Q9JL06 1-348); assay: as above
T6 construct: not shown: FLAG tag added at the 5' terminal of the gene
Protocol: as §3, §4, §5

human LPA1 [8] = molecular target: T4, human LPA1; assay: flow cytometry, human LPA1-stably expressing CHO cells, median fluorescence intensity
Description: as §1, §2

human LPA1 [9] = molecular target: T4, human LPA1; assay: cell-based or functional assay; remark: listed apart in the source

T3 sequence (P61793 whole entry): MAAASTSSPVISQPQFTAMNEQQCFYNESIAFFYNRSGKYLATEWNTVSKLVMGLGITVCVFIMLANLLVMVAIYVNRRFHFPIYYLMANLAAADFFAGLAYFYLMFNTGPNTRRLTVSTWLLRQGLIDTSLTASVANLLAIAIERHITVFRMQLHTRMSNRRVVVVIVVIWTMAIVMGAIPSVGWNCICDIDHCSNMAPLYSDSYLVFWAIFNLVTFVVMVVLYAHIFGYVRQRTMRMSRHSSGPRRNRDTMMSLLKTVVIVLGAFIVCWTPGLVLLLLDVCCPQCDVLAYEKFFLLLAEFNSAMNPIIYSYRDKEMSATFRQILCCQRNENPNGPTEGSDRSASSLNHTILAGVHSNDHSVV
T6 sequence (Q9JL06 whole entry): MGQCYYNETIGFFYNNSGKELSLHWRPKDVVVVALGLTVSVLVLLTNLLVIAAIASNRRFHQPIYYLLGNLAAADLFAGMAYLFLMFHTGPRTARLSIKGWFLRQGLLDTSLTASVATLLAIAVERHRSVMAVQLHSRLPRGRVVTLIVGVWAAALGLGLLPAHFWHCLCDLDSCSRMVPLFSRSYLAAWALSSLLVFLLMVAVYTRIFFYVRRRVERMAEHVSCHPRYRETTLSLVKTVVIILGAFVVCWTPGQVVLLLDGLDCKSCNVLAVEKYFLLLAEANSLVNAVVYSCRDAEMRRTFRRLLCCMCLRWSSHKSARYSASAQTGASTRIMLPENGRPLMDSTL
T5 sequence (Q9HBW0 other isoform, or with tags, fused parts or gaps): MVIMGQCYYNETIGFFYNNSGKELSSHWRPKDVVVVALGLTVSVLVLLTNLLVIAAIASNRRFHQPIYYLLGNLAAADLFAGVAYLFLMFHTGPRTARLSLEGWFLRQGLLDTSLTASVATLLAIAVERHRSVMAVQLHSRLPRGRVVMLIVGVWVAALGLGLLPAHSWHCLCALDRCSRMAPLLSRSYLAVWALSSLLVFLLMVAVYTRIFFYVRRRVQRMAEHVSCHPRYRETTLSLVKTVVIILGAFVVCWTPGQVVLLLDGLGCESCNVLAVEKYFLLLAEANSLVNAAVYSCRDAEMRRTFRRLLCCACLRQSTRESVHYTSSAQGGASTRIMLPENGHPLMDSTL
T4 sequence (Q92633 whole entry): as the sequence (P61793 whole entry) above, with A4I, S8I, Q22P, Y40H, V61I, D193E, H194N, V269I, N331S, N335T counted along it

Row | Binder | EC50 (mouse LPA1 [1]) | Intracellular cAMP signaling inhibition (Inhibition rate %/100 nM) (human LPA1 [2]) | Intracellular cAMP signaling inhibition (Inhibition rate %/100 nM) (mouse LPA1 [3]) | EC50 (human LPA1 [8]) | Intracellular cAMP signaling inhibition IC50 (human LPA1 [9]) | binding result [4] | binding result [5] | binding result [6] | binding result [7]
1 | 210309-1-C (antibody, mouse IgG1, V domains shown, Mouse monoclonal from human LPA1 immunization) VH: QVHLQQSGAELARPGASVKLSCKASGYSFTAYGISWVQQRTGQGLEWIGEIYPRSGNTYYSEKFKGKATLTADKSSSTAYMELRSLTSEDSAVYFCARESLLKRLGWYFDVWGTGTTVTVSS VL: DIQMTQSPASLSASVGETVTITCRASQNIYSFLAWYQQKQGNSPQLLVYNAKTLAEGVPSRFSGSGSGTQFSLKINSLQPEDFGSYYCQHHYGPPLTFGVGTKLELK | 1.8 nM | 47% | 20% | 1.7 nM | 25.1 nM | no binding (tested: 25 g/mL (so in the source)) | no binding (tested: 25 g/mL (so in the source)) | no binding (tested: 25 g/mL (so in the source)) | no binding (tested: 25 g/mL (so in the source))
2 | 210420-1-H (antibody, mouse IgG1, V domains shown, Mouse monoclonal from mouse LPA1 immunization) VH: QFQLQQSGAELARPGASVKLSCKASGYTFASFGISWVKQRTGQGLEYIGEIYPRSGTTYFNEKFRGKATLTADKSSSTAYMELRSLTSEDSAVYFCAREGVRRYAMDYWGQGTSVTVSS VL: DIQVTQSPASLSASVGETVTITCRASGNIYSFLAWYQQKQGKSPQLLVYNAKTLAEGVPSRFSGSGSGTQFSLKISSLQPEDFGSYYCQHHYGIPLTFGGGTKLDLK | 1.6 nM | 22% | 37% | 2.5 nM | 49.1 nM | no binding (tested: 25 g/mL (so in the source)) | no binding (tested: 25 g/mL (so in the source)) | no binding (tested: 25 g/mL (so in the source)) | no binding (tested: 25 g/mL (so in the source))
3 | 210310-1-D (antibody, mouse IgG1, V domains shown, Mouse monoclonal from human LPA1 immunization) VH: QVQVQQSGAELARPGASVRLSCKASGYTFTSFGVNWVKQRTGQGLEWIGQIYPRTGTTYHNERFKGKATLTTDKSSSTAYMELRSLTSEDSAVYFCAREGDRYSLAYWGQGTLVTVSA VL: DIQMTQSPASLSASVGETVTITCRASENIYRFLAWYQQKQGKSPQLLVYNAKTLVEGVPSRFSGSGSGTQFSLKINNLQPEDFGSYYCQHHYGIPLTFGAGTKLELK | 2.1 nM | 22% | 25% | 2.7 nM | 60.5 nM | no binding (tested: 25 g/mL (so in the source)) | no binding (tested: 25 g/mL (so in the source)) | no binding (tested: 25 g/mL (so in the source)) | no binding (tested: 25 g/mL (so in the source))

Further binders by falling EC50 (mouse LPA1 [1]), results first:

Row | EC50 (mouse LPA1 [1]) | Intracellular cAMP signaling inhibition (Inhibition rate %/100 nM) (human LPA1 [2]) | Intracellular cAMP signaling inhibition (Inhibition rate %/100 nM) (mouse LPA1 [3]) | EC50 (human LPA1 [8]) | Intracellular cAMP signaling inhibition IC50 (human LPA1 [9]) | Binder | binding result [4] | binding result [5] | binding result [6] | binding result [7]
4 | 2.1 nM | 32% | 32% | 1.4 nM | 21.8 nM | 210309-2-A (antibody, mouse IgG1, V domains shown, Mouse monoclonal from human LPA1 immunization) VH: QVQLQQSGAELARPGASVKLSCKASGYTFTSYGISWVKQRTGQGLEWIGEIYPRSGNTYYNEKFKGRATLTADKSSSTAYMELRSLTSEDSAVYFCARESILLRLGWYFDVWGTGTTVTVSS VL: DIQMTQSPASLSASVGGTVTITCRASENIYRFLAWYQQKQGKSPQLLVYNAKTLAEGVPSRFSGSGSGTQFSLKINSLQPEDFGIYYCQHHYGPPLTFGAGTKLELK | no binding (tested: 25 g/mL (so in the source)) | no binding (tested: 25 g/mL (so in the source)) | no binding (tested: 25 g/mL (so in the source)) | no binding (tested: 25 g/mL (so in the source))
5 | 2 nM | 1% | 30% | 2.3 nM | 69.9 nM | 211222-1-A (antibody, mouse IgG1, V domains shown, Mouse monoclonal from human LPA1 immunization) VH: QVQVHQSGAELARPGASVRLSCKASGYTFTSFGVNWVKQRTGQGLEWIGQIYPRSGTTYHNERFKGKATLTADKSSSTAYMELRSLTSEDSAVYFCAREGDRYSLAYWGQGTLVTVSA VL: DIQMTQSPASLSASVGETVTITCRASENIYRFLAWYQQKQGKSPQLLVSNAKTLAEGVPSRFSGSGSGTQFSLKINYLQPEDFGNYYCQHHYGIPLTFGAGTKLELK | no binding (tested: 25 g/mL (so in the source)) | no binding (tested: 25 g/mL (so in the source)) | no binding (tested: 25 g/mL (so in the source)) | no binding (tested: 25 g/mL (so in the source))
